The values that follow come from paper PMC5247705.

For assay [1], the target named is rTLR5^N14, tag-free (zebrafish TLR5 LRRNT-LRR14 fused to the C-terminal fragment of hagfish variable lymphocyte receptor) (zebrafish | hagfish) (UniProt B3DIN1). In words: crystal structure; bsflagellin^cent-rTLR5^N14 complex, 2.1 Å; crystallised in 17.5% (w/v) PEG 300, 50 mM sodium acetate, pH 4.4 at 18 °C.
Assay [2] has as its target human Toll-like receptor 5 on HEK293^TLR5 reporter cells (human) (UniProt O60602).
UniProt O60602, sequence (O60602 21-858): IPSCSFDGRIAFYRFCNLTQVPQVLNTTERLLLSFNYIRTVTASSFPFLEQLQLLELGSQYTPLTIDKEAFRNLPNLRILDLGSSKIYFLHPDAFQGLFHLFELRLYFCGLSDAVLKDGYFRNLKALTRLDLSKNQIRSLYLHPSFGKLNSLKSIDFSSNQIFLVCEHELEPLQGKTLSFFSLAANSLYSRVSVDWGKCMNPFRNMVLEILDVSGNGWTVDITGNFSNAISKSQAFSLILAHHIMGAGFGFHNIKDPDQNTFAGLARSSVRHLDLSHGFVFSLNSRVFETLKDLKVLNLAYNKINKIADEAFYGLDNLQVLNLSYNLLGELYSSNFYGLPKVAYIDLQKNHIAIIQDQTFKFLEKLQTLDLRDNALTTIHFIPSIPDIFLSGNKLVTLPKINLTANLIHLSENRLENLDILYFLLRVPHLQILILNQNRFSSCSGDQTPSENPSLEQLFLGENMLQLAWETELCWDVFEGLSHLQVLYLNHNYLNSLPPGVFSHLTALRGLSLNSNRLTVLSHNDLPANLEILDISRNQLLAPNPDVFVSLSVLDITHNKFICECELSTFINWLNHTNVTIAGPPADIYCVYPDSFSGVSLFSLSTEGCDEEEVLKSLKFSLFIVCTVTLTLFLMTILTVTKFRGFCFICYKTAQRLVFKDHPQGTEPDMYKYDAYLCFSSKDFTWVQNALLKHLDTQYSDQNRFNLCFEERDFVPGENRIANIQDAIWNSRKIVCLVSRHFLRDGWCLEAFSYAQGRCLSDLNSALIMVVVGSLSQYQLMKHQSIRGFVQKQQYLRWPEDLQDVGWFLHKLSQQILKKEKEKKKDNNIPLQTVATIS
In assay [3] the target is rTLR5^N14-Avitag, biotinylated (zebrafish | hagfish) (UniProt B3DIN1). In words: ELISA; competitive binding assay: 96-well plates coated with 0.2 μg/ml bsflagellin in PBS; serially diluted soluble flagellin and 0.02 μg/ml biotinylated rTLR5^N14-Avitag incubated together for 48 hours at 4 °C in 1% BSA in PBS-T; detected with HRP-streptavidin. A general note: An ELISA detects its analyte on a solid surface through an enzyme-linked reagent.

The target of assay [4] is human Toll-like receptor 5 on HEK293^TLR5 reporter cells (human) (UniProt O60602). This is another data set of the same source.
Assay [5] has the same target. The source holds these as a separate data set.
The target in assay [6] is rTLR5^N14, tag-free (zebrafish TLR5 LRRNT-LRR14 fused to the C-terminal fragment of hagfish variable lymphocyte receptor) (zebrafish | hagfish) (UniProt B3DIN1). The experiment in a line: SEC; purified flagellin and rTLR5^N14 incubated at 18 °C for 30 minutes; Superdex 200 10/300 column; elution monitored at 222 nm. On the technique in general: In gel filtration, larger molecules generally elute earlier.

Assay [7] shares this target. In words: native gel or EMSA; purified flagellin and rTLR5^N14 incubated at 18 °C for 30 minutes; native PAGE on 6% polyacrylamide gels at room temperature for 1.5 hours at 100 V. For orientation: A gel shift assay detects complexes by their altered migration in electrophoresis.

Turning to “central region of bsflagellin (bsflagellin^cent; D1 residues 54-230) (from UniProt P02968 54-230) (domain or fragment)”, the stoichiometry N – broadly, a count of units in the complex or per binding partner – in assay [1] came out at 1.

Substance “Shigella flexneri flagellin, full length (from UniProt Q08860 1-550) (natural protein)” displayed an EC50 (pM) for TLR5 signaling; NF-κB-inducible SEAP reporter in HEK293^TLR5 cells in assay [2] of 1.57 pM. Further, the IC50 (usually the concentration that gives 50% inhibition) in assay [3] turned out to be 0.414 nM.

The substance “bsflagellin E114A mutant (from UniProt P02968 1-304) (natural protein)” yielded a TLR5 activity in the HEK293^TLR5 reporter cell assay, fold reduction against bsflagellin^WT in assay [4] of 6 fold.

For “Salmonella enterica subspecies enterica serovar Dublin flagellin, full length (from UniProt Q06971 1-505) (natural protein)”, in assay [2], the EC50 (pM) for TLR5 signaling; NF-κB-inducible SEAP reporter in HEK293^TLR5 cells worked out at 0.57 pM. For the same substance, in assay [3], the IC50 is 0.289 nM.

In assay [5], “bsflagellin R89A mutant (from UniProt P02968 1-304) (natural protein)” displayed an HEK293^TLR5 reporter cell activity, fold change of EC50 against bsflagellin^WT of 49 fold. Also, the fold lower activity in the competitive rTLR5^N14-binding assay in assay [3] was 10 fold. Turning to “Pseudomonas aeruginosa flagellin, full length (from UniProt P21184 1-394) (natural protein)”, the EC50 (pM) for TLR5 signaling; NF-κB-inducible SEAP reporter in HEK293^TLR5 cells in assay [2] came to 1.68 pM. Also, the IC50 in assay [3] is 0.673 nM. The substance “bsflagellin L93A mutant (from UniProt P02968 1-304) (natural protein)” had a TLR5 activity in the HEK293^TLR5 reporter cell assay, fold reduction against bsflagellin^WT in assay [4] of 2 fold.

The substance “Escherichia coli flagellin, full length (from UniProt P04949 1-498) (natural protein)” had an EC50 (pM) for TLR5 signaling; NF-κB-inducible SEAP reporter in HEK293^TLR5 cells in assay [2] of 1.13 pM. The IC50 in assay [3] amounted to 0.517 nM. “Bacillus subtilis flagellin (Hag), full-length wild type (from UniProt P02968 1-304) (natural protein)” came in with an EC50 (pM) for TLR5 signaling; NF-κB-inducible SEAP reporter in HEK293^TLR5 cells in assay [2] of 1.18 pM. In addition, the stoichiometry N in assay [6] and in assay [7] was 1 each time. For the same substance, the IC50 in assay [3] amounted to 0.204 nM.
